Data as given in the nanobody polyreactivity screen of Harvey et al. (2022).

Experiment: yeast display, Sf9 membrane polyspecificity reagent, FACS + sequencing; frameworks hold sequencing errors
Outline: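 Galactose induction of a Saccharomyces cerevisiae BJ5465 synthetic nanobody display library ran 36–48 hours. The cells were then stained for 1 hour at 4 °C with 10% biotinylated, detergent-solubilized Sf9 membrane reagent, pulled down on streptavidin microbeads and FACS-sorted into low and high (top ~1%) gates on expression and reagent-binding fluorescence. Labels for polyreactivity follow the gate of origin.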

For “QVQLVESVGGLVQAGGSLRLSCAASGNTLVYYDMGWYRQAPGKERELVAAISWSTGSTYYADSVKGRFTISRDNAKNTVYLQMNSLKPEDTAVYYCAAEPELDEYEHDYWGQGTQVTVSS”, the “polyreactivity (PSR sort gate)” value was “low polyreactivity”.
For “QVQLVESGGGLVQAGRSLRLSCAASGYTIRYYAMGWYRQAPGKERELVAAITNRGGTYYADSVKGRFTISRDNAKNTVYLQLNSLKPEDNAVYYCAARYYWIDFKFGGPRDYWGQGTQVTVSS”, the “polyreactivity (PSR sort gate)” value was “high polyreactivity”.
With “QVQLVESVGGLVQAGASLRLTCAASGSIFWYAMGWYRQAPRQERELVAGISRGGSTYYADSVKGRFTISRDNAKNTVYLQMNSLKPEDTAVYYCNTAGYYGTPSNYWGQGTQVTVSS” the “polyreactivity (PSR sort gate)” value was “low polyreactivity”.
With “QVQLVESAVGLVQAGGRLRLSCAASGRIFVFNAMGWYMQAPGKERELVAAITASSTRTYYADSVKGRFTISRDNAKNTVYLQMNSLNPEDPAVYYCARDIRQYILYGRVDYWGQGTQVTVSS” the “polyreactivity (PSR sort gate)” value was “low polyreactivity”.
With “QVQLVESGGGLVQAGGSLRLSSAASGLTFALYAMGWYRQAPGKERELVATISRGASTNYADSVKGRFTISRDNTKNTVYLQMNSLKPEDTAVYYWAVALRSTPRTREVRPSPRVYYWGQGTQVTVSS” the “polyreactivity (PSR sort gate)” value was “high polyreactivity”.
With “QVQLVDSGGGLVQAGGSLRLSCAASGIIIKLYAMGWYRQAPGKEREFVATITKTGGRTYYADSVKGRFTISRDNAKNTVYLQMNSLKPEDTAVYYCAARRVNGKMYYWGQGTQVTVSS” the “polyreactivity (PSR sort gate)” value was “high polyreactivity”.
For “QLQLVESGGGLVQAGGSLRLSCAASGRIFYVNAMGWYRQAPGKERELVASITDGSSTYYADSVKGRFTISRDNAKNTVYLQMNILKPEDTAVYYCAVRAAYWGAHYYYWGQGTQVTVSS”, the “polyreactivity (PSR sort gate)” value was “high polyreactivity”.
In the case of “QVQLVESGGGLVQAGGSLRLSCAASGRISVFYAMGWYRQAPGKEMELGAAITRSGTTKYADSVKGRFTISRDNAKNTVYLQMNSLKPEDTAVYYCAARSVYYKFGYYYWGQGSQVTVSS”, the “polyreactivity (PSR sort gate)” value is reported as “high polyreactivity”.
With “QVQLVESGGGLVQAVGSLRLSCAASGLTFYIYVMGCYRQAPGKERELVAAISGSGGSTYYADSVKGRFTISRDNAKNTVYLHLNSLKLEDTALYYCNAEDWWRYLRGEDDYWGQGTQVTVSS” the “polyreactivity (PSR sort gate)” value was “high polyreactivity”.
With “QVQLVESGGGLVQAGGSLRLSCAASGSTFGGYPMGRYRQAPGKERELGAAITWSGSSTTYADSVKGRFTISRDNAKKTVYLQMNSLKPEETAVYYCAAEAQDSTYPQYDYWGQGTLVTVSS” the “polyreactivity (PSR sort gate)” value was “low polyreactivity”.
In the case of “QVQVVESGGGLVQAGGSLRLSCAASGRIFNYNAMGWYRQAPGKERELVAAITRSGGSTYYADSVKGRFTISRDNAKNTVFLQMNSLKPEDTAVYYCNKRYIPWAYDYWGQGTQVTVSS”, the “polyreactivity (PSR sort gate)” value is reported as “high polyreactivity”.
For “QVQLVESGGGLVQAGGSLRLSCAASGSTFFNYAMGLYRQAPGKERELVAAITSVGSTYYADSVKGRFTISRDNAKYTVYLQMNSLKPEDTAVYYCNAESYFWDFYDYDHWGQGTQVTVSS”, the “polyreactivity (PSR sort gate)” value was “low polyreactivity”.
For “QVQLVESGGGLVQAGGSLRLSCAASGYIFYYYAMGWYRQAPGKERELVAAITFSGGSTYYADSVKGRFTISRDNAKNNVYLQMNRLKPEDTAGYYCAKVELRDAAELGSDEYDYWGQGTQVTVSS”, the “polyreactivity (PSR sort gate)” value was “low polyreactivity”.
In the case of “QVQLVESGGGLVQAGGSLRLSCAASGRIFARYAMGWYRQAPGKERELVAAITKSVGSTYYADSVKGRFTNSRDNAKNTVYLQMNSLKPEDTAVYYCNAVARGYGYDYWGQGTQVTVSS”, the “polyreactivity (PSR sort gate)” value is reported as “high polyreactivity”.
With “QVQLVESGGGLVQAGGSLRLSCAASGSIFYHNAMGWYRQAPGKERELVAAISRSGGITSYADSVKGRFTISRDNAKNTVYLQMNSLKPEDTAVYYCAARSYYDGFYYWGQGTQVTVSS” the “polyreactivity (PSR sort gate)” value was “high polyreactivity”.
In the case of “QVQLVESGGGLVQAGGSLRLSCAASGRIFGINGMGWYRQAPGKERELVAAITWIGGRTYYADSVKGRFTISRDNAKNTVYLQMNSLKPEDTAVYYCNAVYTQRFATYRRYDYWGQGTQVTVSS”, the “polyreactivity (PSR sort gate)” value is reported as “high polyreactivity”.
With “QVQLVESGVGLVQAGGSLRLSSAASGSTFGYYTMGWYRQAPGKERELVASISWSGASTHYADSVKGRFTISRDNAKNTVYLQMNSLKPDDTEVYYCAADWQQQPGTNSFDYWGQGTQVTVSS” the “polyreactivity (PSR sort gate)” value was “low polyreactivity”.
In the case of “QVQLEESGGGLVQAGGSLRLSCAASGSICWLYAMGWYRQAPGKERELVAAIDSGDSTKYADSVKGRFTISRDNAKNTVYLQMNSLIPEDTAVYYCNASRRYHVRAPYDYWGQGTQVTVSS”, the “polyreactivity (PSR sort gate)” value is reported as “low polyreactivity”.
For “QVQLVESGGGLVQAGCSLRLSCAASGLIFYTYAMGWYRQAPGKEREFVAAISRRGGSTYYADSVKGRFTISRDNAKNTVYLQMNSLKPEYTAVYYCNARYTYPRPYEEYYYWGQGTQVTVSS”, the “polyreactivity (PSR sort gate)” value was “high polyreactivity”.
In the case of “QVQLVESGGGLVQAGGSLRLSCAASGRTFRRYAMGWYRQAPGKERELVAAITRGTRTNYADSVKGRFTISRDNAKNTVYLQMNSLKPEDTAVYYCNARRFLYSGGAYQFYYWGQGTQVTVSS”, the “polyreactivity (PSR sort gate)” value is reported as “low polyreactivity”.
With “QVQLVESGGGLVQAGGSLRLSCAASGRIFPRNAMGWYSPAPGKERELVAAITRAGSTYYADSVKGRFTISRDNAKNTVYLQLNSLKPEDTAVYYCNRQWHRDVYGHDYWGQGTQVTVSS” the “polyreactivity (PSR sort gate)” value was “high polyreactivity”.
For “QVQLVESGGGLVQAGGSLRLSCAASGSIFRSYAMGWYRQAPGKERELVASISRRGGSTYYADSVKGRFTISRDNAKNTVYFQMNSLKPEDTAVYYCAAVRYNSRVSTTPSEMYYWGQGTLVTVSS”, the “polyreactivity (PSR sort gate)” value was “low polyreactivity”.
In the case of “QVQLVESGGGLVQAGGSLRLSCAASGRTFRYKAMGWYRQAPGKERELVAAITWNGGRTYYADSVKGRFTISRDNAKNTVYLQMNSLKPEDTAVYYCAAQGTRVDRYPKYDYWGQGTQVTVSS”, the “polyreactivity (PSR sort gate)” value is reported as “high polyreactivity”.
For “QVQIVESGGGLVQAGGSLRLSCAASGRTFDHNAMGWYRQAPGKERELVATISGSGGSTNYADSVKGRFTISRDNAKNTVDLQMNSLKPEDTAVYYCATPRVWYYNQYSELDYWGQGTQVTVSS”, the “polyreactivity (PSR sort gate)” value was “high polyreactivity”.
In the case of “QVQLVESGGGLVQAGGSLRLSCAASGRIFRLYAMGWYRQAPGKERELVATITSGGTYYADSVKGRFTISRDNAKNTVYLQMNSLKPEDTAVYYCTARRRLRYDYWGQGTQVTVSS”, the “polyreactivity (PSR sort gate)” value is reported as “low polyreactivity”.
In the case of “QVQLVESGGGLVQAGGSLRLICAASGGIFNRYAMGWYRQAPGKEREFVASISRRGGSTYYADSVKGRFTISRDNAKNTVYLQMNSLKPDDTAVYFCGAEYNSEYDYWGQGTQVTVSS”, the “polyreactivity (PSR sort gate)” value is reported as “high polyreactivity”.
In the case of “QVQLVESGGGLVQAGGSLRLSCAASGSTFKRYAMGWYRQAPGKEMELVAAISTRGSTYYADSVKGRFTISRDNAKNTVYLQMNRLKPEETAVYYCNADVGAWAWYTRYDYWGQGTQVTVSS”, the “polyreactivity (PSR sort gate)” value is reported as “low polyreactivity”.
In the case of “QVQLVESGGGVVQAGGSLRLSCAASGSTFYLTVLGWYRKAPGKERELVAASSSSGGSTYYADSVKGRFTISRDNAKNTVYLQMNSLKPEDTAVYYCNKVSAFPHYSGYAYWGQGTQVPVSS”, the “polyreactivity (PSR sort gate)” value is reported as “low polyreactivity”.
For “QVQLVESGGGLVQAGGSLRLSCAASGRIFSSYAMGWYRQAPGKERELVARISYSGGSTYYADSVKGRFTISRDNAKNTVYLQMNSLKPEDTAVYYCNARYYGYGAGYRPYDYWGQGTQVTVSS”, the “polyreactivity (PSR sort gate)” value was “high polyreactivity”.
In the case of “QVQLQESGGGLVQAGGSQRLSCAASGYIFYFQYMGWYRQATGKEREFVAAISDGANTNYADSVKGRFTISRDNAKNTEYLQMNSLKPEDTAVYYCAVYADENYYFIYWGQGTQVTVSS”, the “polyreactivity (PSR sort gate)” value is reported as “low polyreactivity”.
For “QVQLVESGGGLVQAGGSLRLSCAASGSIFEGNARGWYRQAPGKERELVAAISTTGGITYYADAVKGRFTISRANAKNTVDLQKNSLKPEDTAVDYCAADPSQPRNDSSNYDYWGQGTQVTVSS”, the “polyreactivity (PSR sort gate)” value was “low polyreactivity”.
In the case of “QVQLVESGGGLVQAGGSLSLTCAASGSTFDWYAMRLYRQAPGKERELVAASTSGGSTYYADSVKGRFTISRDNAKITVYLQMNSLKPEDTAVYYCAAESRQVRYILYYYWGQGTQVTVSS”, the “polyreactivity (PSR sort gate)” value is reported as “low polyreactivity”.
In the case of “QVQLVESGGGLVQAGGSLRLSCAASGLTFIHYSMGWYRQAPGKEREFVAAISTNSGSTYYADSVKGRFTISRDNAKNTVYLQMNSLKPEDTAVYYCAARGLRWRIDGEYWGQGTQVTVSS”, the “polyreactivity (PSR sort gate)” value is reported as “high polyreactivity”.
For “QVQLVESGGGLVQAGGSLRLSCAASGSIFGYYDMGWYRQAPGKERELVAAISSRGGITYYADSVKGRFTISRDHAKNTVYLQMNSLKPEDTAVYYCAAYAYFHRREGYWVQGTQVTVSS”, the “polyreactivity (PSR sort gate)” value was “high polyreactivity”.
In the case of “QVQLVESGGGLVQAGGSLRLSCAASGRIIDYYTMGWDRQAPGKERELVATITIVGITNYADSVKGRFTISRDNAKNTVYLQMNSLKPEDTAVYYCAADRADFFVIRTIDPYDYWGQGTQVTVSS”, the “polyreactivity (PSR sort gate)” value is reported as “low polyreactivity”.
In the case of “QVQLVESGGGLVQAGGSLRLSCAASGFTFYRYAMGWYRQAPGKESELVAAISGSGGSTYYADSVKGRFTISRDNAKNTVYLQMNSLKPEDTAVYYCNTVWFYGAKYDYWGQGTQVTVSS”, the “polyreactivity (PSR sort gate)” value is reported as “high polyreactivity”.
With “QVQLVESGGGLVQAGGSLRLSCAASGLIYVGNAMGWYRQAPGKERELVAAISSRGGRTYYADSVKGRFTISRDNAKNSVYLQMNSLKPEDSAVYYCNAANSQWGFEYWGQGTQVTVSS” the “polyreactivity (PSR sort gate)” value was “high polyreactivity”.
In the case of “QVQLVESGGGLVQAGGSLRLSCAASGRTFARYAMGWYRQAPGKERELVARISSGGSTYYADSVKGRFTISRDNAKNTVYLQMNSLKPEDTAVYYCAASGWRYRYDYWGQGTQVTVSS”, the “polyreactivity (PSR sort gate)” value is reported as “high polyreactivity”.
For “QVQLVESGGGLVQAGGSLRLSCAASGSTYYGNAMGWYRQAPGKERQLVAAIRSRGGSTYYADSVKGRFTISRDNAKNTVYLQMNSLKPEDPAVYYCDAKQPSWKYAYYYWGQGTQVTVSS”, the “polyreactivity (PSR sort gate)” value was “high polyreactivity”.
For “QVQLVESGGGLVQAGGSLRLSCAASGRIFYRNAMGWYRQAPGKERELVAAISSGGITNYADSVKGRFTISRDNAKNTVYLQMNSLKPEDTAVYYCNADAYRLPGYTFGYWGQGTQVTVSS”, the “polyreactivity (PSR sort gate)” value was “high polyreactivity”.
With “QVQLVDSGGGIVQAGGSLRLSCAASGFIIAHYAMGWYRHAPGKERELVAAISWNGGRTYYADSVKGRFTISRDNAKNSVFFQRISLKPEDTAVYYCAADNRGTTVYYRNYYWGQGTQVTVSS” the “polyreactivity (PSR sort gate)” value was “high polyreactivity”.
In the case of “QVQLVESGGGVVQAGGSHRLSCAASGSIFSSDAMGWYRQAPGKEREFVAAISSSGDSTYADSVKGRFTISRDNAKNTVYLQINSLKPEDTAVYYCAVGGAGSDDYWGPGTQVTVSS”, the “polyreactivity (PSR sort gate)” value is reported as “low polyreactivity”.
For “QVQLVESGGGLVQAGGSLRLICAASGSIFGYNAMGWYRQAPGKERELVAAIRISTDNTYYADSVKGRFTISRDNAKNTVYLQMNSLKPEDTAVYYCAASSQTQYGDNYWGQGTQVTVSS”, the “polyreactivity (PSR sort gate)” value was “high polyreactivity”.
